Experimental data from a protein production outcome set (Wang et al. 2014).

Test: label from the status in PepcDB records
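Further: failed if final PepcDB status was selected cloned or expressed and not failed if soluble or beyond.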

Sequence	protein production
MEGISIYTSDNYTEEMGSGDYDSMKEPCFREENANFNKIFLPTIYSIIFLTGIVGNGLVILVMGYQKKLRSMTDKYRLHLSVADLLFVITLPFWAVDAVANWYFGNFLCKAVHVIYTVNLYSSVLILAFISLDRYLAIVHATNSQRPRKLLAEKVVYVGVWIPALLLTIPDFIFANVSEADDRYICDRFYPNDLWVVVFQFQHIMVGLILPGIVILSCYCIIISKLSHSKGHQKRKALKTTVILILAFFACWLPYYIGISIDSFILLEIIKQGCEFENTVHKWISITEALAFFHCCLNPILYAFLGAKFKTSAQHALTSVSRGSSLKILSKGKRGGHSSVSTESESSSFHSS	not failed
MEGLEAYDYHLPPEQIAQEGVEPRDMARLMVVYREGPFRVAHKRVRDLPEFLRPGDVLVFNESKVIPARLLARKPTGGKVEILLVRERSPGLWEALLGPARKAPPGTRLLLLSPKDLAPVPGLQAEVVAVEEDGVRLLRFQGDLVAHLEEVGEVPLPPYIKAKIPMERYQTVYARRPGSVAAPTAGLHFTPELLERLREMGVELRFLTLHVGPGTFRPVKGDPEKHEMHAEPYAIPEEVAEAVNRAKAEGRRVVAVGTTVVRALESAYREGVGVVAGEGETRLFIRPPYTFKVVDALFTNFHLPRSTLLMLVAAFLGRERTLEAYRLAVAEGYRFYSLGDAMLIL	not failed
MEGLIPFLYKAIVMYKREGSFSSVLLSDHHSPSNAGYYMRLPGDSSSRFRTSDLRRFGTDRFGMLETTPSSSPSRVSTRNITKRT	failed
MEGLQRSTISFRRQGSSGIVFDDRLIAELNKSGNNEQKDESQRDEQPKPMSESSEQVKPIDEKDKLRPIKTGGGAPGGIERSRSNGGGAQRHHRTTGRVSPAVDPPSPRISSCGCCSAFGKNPPGKKVNPRKRPPKRRSR	failed
MEGSQQTITSKQLVRMLKDASRGSKGKGSGEMKFCFLIGAGASISSGIPSGAKLAWDWLQQIKEDCDGEDFEDWKIEIKMPDQHIEERVGEFYPEIYEKRFGHAPETGYDYIRGLMEGREPSLGYLILANIMVREKHNVVITTNFDNLLEDAIRTYTKEKPFIAGHEALADYVPKRSDRPIILKLHRDLFLQPFSDQLNTDILQAAWESILGKFLSDYHLIVLGYGGNDGSLMNYLLKLKNRKPIYWCVRNTDKATSKSLWNTLSPKAKRLLKNDGYLVPIDDFDRFMYDCYAALGYKFLEGIEKIEKPKSIHEILKPNYARIESIQTQLRQLSQTEEELSKESFQSIKSFLPDSWMWILKANQEKDIDKKDKIYREGIAKYPQDANLLGDYADFLCDICHD	not failed
MEIEFMTNVAVRRPNLNDVDELYLFFRIVITNTYKNEGLSQSLDDIENEINSKKQYLKSDFDSNGEGRYFLLAIDTSNDKIIGTIEIGPASTLINSCTGGVLKNLYEIGTVFILPEYQRKGIGSLLLHTMFLTLLSRGITEYCLDSGYKNAQSIWTKKFGKPSYVLKDYWGESSDHMIWKKSLHDTPIIFEL	failed
MEIFFTILIMTLVVSLSGVVTRVMPFQIPLPLMQIAIGALLAWPTFGLHVEFDPELFLVLFIPPLLFADGWKTPTREFLEHGREIFGLALALVVVTVVGIGFLIYWVVPGIPLIPAFALAAVLSPTDAVALSGIVGEGRIPKKIMGILQGEALMNDASGLVSLKFAVAVAMGTMIFTVGGATVEFMKVAIGGILAGFVVSWLYGRSLRFLSRWGGDEPATQIVLLFLLPFASYLIAEHIGVSGILAAVAAGMTITRSGVMRRAPLAMRLRANSTWAMLEFVFNGMVFLLLGLQLPGILETSLMAAEIDPNVEIWMLFTNIILIYAALMLVRFGWLWTMKKFSNRFLKKKPMEFGSWTTREILIASFAGVRGAITLAGVLSIPLLLPDGNVFPARYELVFLAAGVILFSLFVGVVMLPILLQHIEVADHSQQLKEERIARAATAEVAIVAIQKMEERLAADTEENIDNQLLTEVSSRVIGNLRRRADGRNDVESSVQEENLERRFRLAALRSERAELYHLRATREISNETLQKLLHDLDLLEALLIEENQ	failed
MEIHYAAKQDKCLVRPVIRDHTGSQSYRSTTSILTDHLRRNHHSHGAIASRDYLSYSWNSQLRRFSSEGDGNNASEDSRFPLNKDKMGKEKSTVGVEHFDSHAQLGVQDQIEWLNNEKRASESRKESPFLNKRERLKNEFLRRIQPWETIQLSWESFPYYVHEHTKDTLVECVSSHIKQKSMTSKYGARLDSSSGRILLQSVPGTELYRERLVRALARDTQVPLLVLDSSVLAPYDFADDYNEESESDDDIAESDQCTSQSEAEEETDGDNDDTSSSETKIEGTDDEERYLEISKEVLKKLGADIEDIEKRMSEQLYGSSEVSEAAAVDQDDKAKRPLKKGSQFVTCALCYLHQMMSV	failed
MEIMEFEEAFKEVYEMVKPKYKLFTAGPVACFPEVLEIMKVQMFSHRSKEYRKVHMDTVERLREFLEVEKGEVLLVPSSGTGIMEASIRNGVSKGGKVLVTIIGAFGKRYKEVVESNGRKAVVLEYEPGKAVKPEDLDDALRKNPDVEAVTITYNETSTGVLNPLPELAKVAKEHDKLVFVDAVSAMGGADIKFDKWGLDVVFSSSQKAFGVPPGLAIGAFSERFLEIAEKMPERGWYFDIPLYVKYLKEKESTPSTPPMPQVFGINVALRIIEKMGGKEKWLEMYEKRAKMVREGVREIGLDILAEPGHESPTITAVLTPPGIKGDEVYEAMRKRGFELAKGYGSVKEKTFRIGHMGYMKFEDIQEMLDNLREVINELKKQKGIN	not failed
MEISNRLKSISEVMDRCEIAADIGTDHAYLPIYLIKNNLCKRFIASDVNAGPLKKAINNINKYKLEDKIECRLGSGLNVLKLEEVDVVVIAGMGGNLIRDIIEERLDIFKKLKYAVLQPVQNPEILREYLIKRGFNIIEEQLCIDESKYYEIIKVCYDSKIEDKDDVYYEIGDKLIDMKHPLLKEYINYKIRKYDKIYKNISEESLNALSRKNELSIKIRKLKELLSCL	failed
MEITTLQIVLIFIVACVSGMGSILDEFQFHRPLVACTLIGAVLGDLKTGIIIGGTLEMIALGWMNIGAAVAPDAALASIISTILVIAGGQGIGAGIALAIPLAAAGQVLTIIVRTITVAFQHAADSAAERGNLTAISWIHVSALLLQAMRIAIPAVIVAVSVGTDTVHALLNSIPDVVTNGLNIAGGMIVVVGYAMVINMMRAGYLMPFFYLGFVTAAFTEFNLVALGVIGIVMAVLYIQLSPKYNKVQGQSVTSGNNGLDNELD	failed
MEKAPLLLETVEQAVRILQESPFVAIWNYKVLSVQAGAVALALPAQPQFYRPGGIIQGGCLMTLADTAFWLAAMTELGIDAPIVTLEMKTHFLRAAQADVYCRAEVMKSGRRVTYGTATITDAAGQTLSHHTLTYLAALEHHHHHH	failed
MEKENDENITKKLSLKKVLFNSLFVSLSILVLGFVINYKYAVGYIFILVIHELGHYIIAKFLKVSVAFGGFTPVGAYIIHENPKNCKENALIAMGGPLFGGLLGLIYYIVYYVTGNNTFLVLTFTSIILNLGNLIPVSPLDGGQIAEAISPTLCYIGFPVLIYLFILLNSLKSKILLLFIIVAGIYQTYYFTMKYKTDPYYKLDKPSKIKFIFIYSILVLSLTISAIYLYNSFDFKDIFHSIARFK	failed
MEKFTVSKRHWLLLWGLQLGLAGGAAPVFSQAVLPYTPNLDQQQLEDQGLALTEDVVQLVRFQQYDLAFPRAKLATQLAPEQFQTWFILGTLYLQQEEVEPGITVLKKAEALAPEEAGIKFTLGNAYFQKGQYDQAVEVLLAGLAQRPDTPAALFDLGNAYLKLVKYPDAVTAYQKALKAEEQFWPALNNIGLIEYEQGKIDTALKRWQEVIKIDSEQPEPQLAIAVALYKQGKTEEGLRKAQDALNLDSRYGEIDFLVKNLWGEQLIADTKALFATPTMVEVLRTLPPPSDDL	failed
MEKIIVVKYRDVKLKSPILIGGLPGIGNVGKIAADYIVEKLNMVKIYDIFSEYLPPQVFINDDSEIHLVRNSIYYKKMRGKHDLLVLGGDFQGTTQEAQYELSYKMLELAKDMNVSEVYTLGGYSVGKIVERPRVLGAVTDKKLIPELEKNGVIFPKGEPGGGIVGSAGLILGLGMEIFKINGACLMGETSGYFADPKSAMEVLNVLQKQIGIKIDMSDIETRSKQIEQITGKMQEEFQNKQGKEDLGYFG	failed
MEKKANHGDDVQESVPIIHSQVVKIKREFEKIQHPSLKQPEMPLVFREIMGPRRSRSPLGLGERERSIPVGN	failed
MEKKKVTIPQVCHGHSRPVVDLFYSPITPDGFFLISASKDSHPMLRNGETGDWIGTFEGHKGAVWSSCLDNNALRAASASADFSAKLWDALTGDVLHSFEHKHIVRACAFSEDTKSLLTGGFEKILRVFDMNRLDAPPTEVDKSPGSIRTLTWLHSDQTILSSCTDIGGVRLWDVRSGKIVQTLETKSPVTSAEVSQDGRYITTADGSTVKFWDANHFGLVKSYDMPCNIESASLEPKSGEKFVAGGEDMWVRVFDFYTGEEIGCNKGHHGPVHCVRFTPTGLSYASGSEDGTIRIWQTTPANPEENETSSRRVKHSVDEVSKKIEGFHINKEGKTAEKPSDT	failed
MEKKLAPQFDNFYQSCRRYFQKLSRNKNFRSLKVYLLILTIVMVVIINPLSSNISGIVNILPTTTEKITHKSSAQQTDKQSHKTSNKAAYKTSWIGNTFGGKKWVQIQMEGIYVTPNGTVYVNSHWDEAGREVGIYKDGDVIGKADDLHGWGRLGGKAITANQKYLYVAMRQSHEGKPEDDYPPKGTTWYNVRRYDLSGKPAPFAGGRGWDKSMLIVNSKNDVTGLATKDKELYVSDPANDRLRVYNTDTMQELRSFSVPNPGAIAVDRQNNLWVVQKKKIVRYSPQGKQLAQQITDVANPSAIAFDPQGRLLVADNGKRQQVLIYNIANKPKQVGTLGDKGGIYGGTSGEVKDGKLYGITGVGTDKSGNIYVSNHGFNSTGADLRKFSSSGKLQWRLLGLQFIDNADADPDSDGRDVFTKNEHFVMDYSKNNGKEWTYKGYTLDKFRYPDDGRLHTTPTSAFVRRLGGKRLLYLSSEMMAERLLIYRFDGEIAVPCGIFGKNHLSWPPNQPKDGSWLWRDVNGDGSIQNNEYKTLGEEDGSVWGWEIDSKGDIWQAAEAGYIKHYPYQKLDNHGCPIYGQAVGGRIPMPAPFKTLTRIKYFPKQDVMYLGGYTNEHPNLDGDWGLVGTEIVRYDNWSKKRNLRWRIVLPYNHQTDPKLHIKSIDVAGDRVFAVASKKAEVYVYKATTGEALQMLTPGAEVGGESGWIDIPYGIRAFRRANGEYLVFVEENAKGKVLMYRLPG	failed
MEKKLTVNVSDTERIASVLAGSYFMYRSLKRQPKNYAAIASAGLLLFRGVTGHCPGYSAAGKKTLPAPVHNIDIETSVIVNRPVDTVYSFWRRLENLPLFMTHLKSVKQKDHNKSDWEAYLPGGIGSIHWEAKIVKDKPGKVIAWSSLENSTIHNAGKVMFEDIGELGTVINVVISYQAPLGVAGEKVLALLTPTFEKMIRKDIVNFKQYIETGKLPTDKEYAENGKSQFE	failed
MEKLENFWTRDELNTFFDYVTPERDVEQFTMFRVLAYSGIRKGELLALTWKDINFEDNTLRVNKTLTQGLGGKLIVQPPKSRAGRRTIDLDDSTMRYLRQWKGVQRETFLGMGFNTNNVDQLVFASNRNHFRSMNTPTKWLNKAIKATGLKHISIHGFRHTHASLLYQSGVGLKETQQRLGHSRADSSVTLDVYTHTTEQQNVAALQRFENYVEAKLEHHHHHH	failed
MEKPDIQRLTNFLIVYTKTLLGAGTYTARVAKCVGRIAEVYGYEININFFFHHITLNVVDMDDNSIQRTYVIPNHHAHVNFKLIFDLSALSWAIYDHKYDLEKAKVVFEQISQQKKHSYLLNLLFVSMANSAFCRLFGGDFGAGNLVFFATFVGLLLRYILTKAKIDLRIQYILCSFISSWFVFFGLDMGYTNTSDVALGSSILYLIPGVFFINSVIDILKDHILMGLSRIISVAILICCIALGIYMTLSISDFGILR	failed
